In the supplement of paper PMC9112550, “Optimization of the antimicrobial peptide Bac7 by deep mutational scanning” (BMC Biology, 2022):

system: Escherichia coli TOP10; experiment: shrunken log2 fold change of peptide-encoding DNA abundance (4.5 h post-induction vs induction); higher = less antimicrobial activity (less host growth inhibition); conditions: time post-induction: 4.5 h; library: site-saturation at positions 5, 18, 19, 20
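Also: peptides expressed intracellularly from a pBAD plasmid library in pooled LB shake-flask culture, induced with 0.3% L-arabinose, DNA abundance read by NGS, three biological replicates, DESeq2 with apeglm shrinkage.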

RRIRPRPPRLPRPRPRPDPNPRP and RRIRTRPPRLPRPRPRPRIDPRP are within 0.2 log units of each other in “shrunken log2 fold change” value: -0.133 for the first, -0.0699 for the second.

Compared with RRIRNRPPRLPRPRPRPMKYPRP, RRIRKRPPRLPRPRPRPCCEPRP is higher in “shrunken log2 fold change” value: -0.164 for the first, 0.638 for the second.

Compared with RRIRCRPPRLPRPRPRPVIFPRP, RRIRTRPPRLPRPRPRPAVQPRP is higher in “shrunken log2 fold change” value: -0.408 for the first, 0.0481 for the second.

Going from RRIRIRPPRLPRPRPRPNEYPRP to RRIRMRPPRLPRPRPRPFEQPRP, the “shrunken log2 fold change” value rises from -0.182 to 0.0263.

Compared with RRIRDRPPRLPRPRPRPAKEPRP, RRIRGRPPRLPRPRPRPFTGPRP is lower in “shrunken log2 fold change” value: 0.0263 for the first, -0.186 for the second.

Going from RRIRPRPPRLPRPRPRPENQPRP to RRIRIRPPRLPRPRPRPKKVPRP, the “shrunken log2 fold change” value falls from 0.0738 to -0.291.

RRIRKRPPRLPRPRPRPVKMPRP and RRIRTRPPRLPRPRPRPHILPRP are within 0.2 log units of each other in “shrunken log2 fold change” value: 0.0491 for the first, -0.00363 for the second.

RRIRIRPPRLPRPRPRPHLQPRP and RRIRPRPPRLPRPRPRPSKNPRP are within 0.2 log units of each other in “shrunken log2 fold change” value: -0.343 for the first, -0.333 for the second.

RRIRDRPPRLPRPRPRPITAPRP and RRIRARPPRLPRPRPRPWHHPRP are within 0.2 log units of each other in “shrunken log2 fold change” value: -0.283 for the first, -0.168 for the second.

Compared with RRIRKRPPRLPRPRPRPGLSPRP, RRIRVRPPRLPRPRPRPYPVPRP is lower in “shrunken log2 fold change” value: 0.0644 for the first, -0.419 for the second.

RRIRVRPPRLPRPRPRPPYWPRP and RRIRPRPPRLPRPRPRPCHGPRP are within 0.2 log units of each other in “shrunken log2 fold change” value: 0.121 for the first, -0.0271 for the second.

Compared with RRIRGRPPRLPRPRPRPGMSPRP, RRIRQRPPRLPRPRPRPAYCPRP is lower in “shrunken log2 fold change” value: 0.417 for the first, -0.043 for the second.

Going from RRIRTRPPRLPRPRPRPVRIPRP to RRIRVRPPRLPRPRPRPNVPPRP, the “shrunken log2 fold change” value falls from -0.0431 to -0.345.

Compared with RRIRHRPPRLPRPRPRPRDEPRP, RRIRNRPPRLPRPRPRPPFIPRP is lower in “shrunken log2 fold change” value: -0.0872 for the first, -0.551 for the second.

Compared with RRIRRRPPRLPRPRPRPWNWPRP, RRIRHRPPRLPRPRPRPAPQPRP is lower in “shrunken log2 fold change” value: 2.98 for the first, 0.588 for the second.

RRIRWRPPRLPRPRPRPITIPRP and RRIRIRPPRLPRPRPRPRITPRP are within 0.2 log units of each other in “shrunken log2 fold change” value: -0.162 for the first, -0.354 for the second.

First: RRIRDRPPRLPRPRPRPAMVPRP
Second: RRIRHRPPRLPRPRPRPHNYPRP
The “shrunken log2 fold change” value of the first is higher: 0.282 for the first, -0.296 for the second.

Compared with RRIRERPPRLPRPRPRPWDGPRP, RRIRARPPRLPRPRPRPAFEPRP is higher in “shrunken log2 fold change” value: 0.421 for the first, 0.702 for the second.

Compared with RRIRTRPPRLPRPRPRPRHYPRP, RRIRARPPRLPRPRPRPVWNPRP is higher in “shrunken log2 fold change” value: -0.162 for the first, 0.0865 for the second.

RRIRERPPRLPRPRPRPCQWPRP and RRIRWRPPRLPRPRPRPCFTPRP are within 0.2 log units of each other in “shrunken log2 fold change” value: -0.017 for the first, -0.0397 for the second.

Compared with RRIRSRPPRLPRPRPRPDLPPRP, RRIRQRPPRLPRPRPRPILEPRP is lower in “shrunken log2 fold change” value: -0.246 for the first, -0.536 for the second.

RRIRERPPRLPRPRPRPFSYPRP and RRIRGRPPRLPRPRPRPWDMPRP are within 0.2 log units of each other in “shrunken log2 fold change” value: -0.0589 for the first, -0.08 for the second.

First: RRIRFRPPRLPRPRPRPTGVPRP
Second: RRIRNRPPRLPRPRPRPPCTPRP
The “shrunken log2 fold change” value of the first is higher: 0.123 for the first, -0.234 for the second.

First: RRIRGRPPRLPRPRPRPTYLPRP
Second: RRIRARPPRLPRPRPRPPEYPRP
The “shrunken log2 fold change” value of the first is lower: 0.132 for the first, 0.386 for the second.

RRIRNRPPRLPRPRPRPCYHPRP and RRIRHRPPRLPRPRPRPNWSPRP are within 0.2 log units of each other in “shrunken log2 fold change” value: -0.0967 for the first, -0.0165 for the second.

RRIRFRPPRLPRPRPRPPCIPRP and RRIRKRPPRLPRPRPRPYNIPRP are within 0.2 log units of each other in “shrunken log2 fold change” value: -0.0411 for the first, -0.133 for the second.

Going from RRIRMRPPRLPRPRPRPVTFPRP to RRIRQRPPRLPRPRPRPVSFPRP, the “shrunken log2 fold change” value falls from -0.0159 to -0.309.

RRIRERPPRLPRPRPRPSMWPRP and RRIRRRPPRLPRPRPRPVHVPRP are within 0.2 log units of each other in “shrunken log2 fold change” value: -0.0377 for the first, 0.0562 for the second.

Compared with RRIRMRPPRLPRPRPRPPDHPRP, RRIRDRPPRLPRPRPRPSIPPRP is lower in “shrunken log2 fold change” value: 0.456 for the first, -0.43 for the second.

Compared with RRIRYRPPRLPRPRPRPYCMPRP, RRIRYRPPRLPRPRPRPLAQPRP is higher in “shrunken log2 fold change” value: -0.918 for the first, -0.17 for the second.

RRIRFRPPRLPRPRPRPDQAPRP and RRIRYRPPRLPRPRPRPGWHPRP are within 0.2 log units of each other in “shrunken log2 fold change” value: -0.0167 for the first, 0.00731 for the second.

First: RRIRNRPPRLPRPRPRPQENPRP
Second: RRIRKRPPRLPRPRPRPECRPRP
The “shrunken log2 fold change” value of the first is lower: -0.151 for the first, 0.313 for the second.

RRIRTRPPRLPRPRPRPHFTPRP and RRIRERPPRLPRPRPRPSSTPRP are within 0.2 log units of each other in “shrunken log2 fold change” value: -0.149 for the first, -0.32 for the second.

RRIRGRPPRLPRPRPRPSYWPRP and RRIRLRPPRLPRPRPRPDSYPRP are within 0.2 log units of each other in “shrunken log2 fold change” value: 0.119 for the first, 0.00388 for the second.

First: RRIRARPPRLPRPRPRPGCVPRP
Second: RRIRYRPPRLPRPRPRPYCKPRP
The “shrunken log2 fold change” value of the first is higher: 0.851 for the first, -1.32 for the second.

Going from RRIRARPPRLPRPRPRPVYNPRP to RRIRWRPPRLPRPRPRPGVCPRP, the “shrunken log2 fold change” value rises from -0.482 to 0.681.

Compared with RRIRTRPPRLPRPRPRPVSWPRP, RRIRCRPPRLPRPRPRPMVNPRP is lower in “shrunken log2 fold change” value: 0.522 for the first, -0.0109 for the second.

RRIRERPPRLPRPRPRPTEPPRP and RRIRNRPPRLPRPRPRPWCQPRP are within 0.2 log units of each other in “shrunken log2 fold change” value: 0.0207 for the first, -0.0618 for the second.

Going from RRIRARPPRLPRPRPRPSVGPRP to RRIRIRPPRLPRPRPRPDHHPRP, the “shrunken log2 fold change” value falls from 0.324 to -1.37.

RRIRDRPPRLPRPRPRPRIRPRP and RRIRIRPPRLPRPRPRPTKPPRP are within 0.2 log units of each other in “shrunken log2 fold change” value: -0.0469 for the first, -0.0472 for the second.

Compared with RRIRIRPPRLPRPRPRPSFYPRP, RRIRIRPPRLPRPRPRPADFPRP is higher in “shrunken log2 fold change” value: -0.776 for the first, -0.162 for the second.

First: RRIRHRPPRLPRPRPRPQQHPRP
Second: RRIRRRPPRLPRPRPRPTTPPRP
The “shrunken log2 fold change” value of the first is lower: -0.384 for the first, 0.463 for the second.

First: RRIRWRPPRLPRPRPRPNYYPRP
Second: RRIRCRPPRLPRPRPRPTHDPRP
The “shrunken log2 fold change” value of the first is lower: -0.705 for the first, 0.302 for the second.

First: RRIRWRPPRLPRPRPRPEIRPRP
Second: RRIRCRPPRLPRPRPRPALDPRP
The “shrunken log2 fold change” value of the first is lower: 0.00534 for the first, 0.356 for the second.

Compared with RRIRTRPPRLPRPRPRPFSRPRP, RRIRLRPPRLPRPRPRPYCVPRP is lower in “shrunken log2 fold change” value: 0.0136 for the first, -0.622 for the second.

First: RRIRERPPRLPRPRPRPQHNPRP
Second: RRIRMRPPRLPRPRPRPMTEPRP
The “shrunken log2 fold change” value of the first is lower: -0.771 for the first, 0.12 for the second.

RRIRKRPPRLPRPRPRPMTGPRP and RRIRRRPPRLPRPRPRPVRKPRP are within 0.2 log units of each other in “shrunken log2 fold change” value: 0.0188 for the first, -0.0548 for the second.

Compared with RRIRHRPPRLPRPRPRPQYHPRP, RRIRIRPPRLPRPRPRPDCEPRP is higher in “shrunken log2 fold change” value: -0.972 for the first, -0.0193 for the second.

Compared with RRIRGRPPRLPRPRPRPYINPRP, RRIRGRPPRLPRPRPRPDLNPRP is higher in “shrunken log2 fold change” value: -0.151 for the first, 0.843 for the second.

RRIRFRPPRLPRPRPRPTMKPRP and RRIRPRPPRLPRPRPRPSQEPRP are within 0.2 log units of each other in “shrunken log2 fold change” value: -0.178 for the first, -0.199 for the second.

RRIRRRPPRLPRPRPRPKDEPRP and RRIRYRPPRLPRPRPRPWYIPRP are within 0.2 log units of each other in “shrunken log2 fold change” value: 0.189 for the first, -0.00804 for the second.

First: RRIRHRPPRLPRPRPRPCFNPRP
Second: RRIRLRPPRLPRPRPRPWRRPRP
The “shrunken log2 fold change” value of the first is lower: -0.588 for the first, 0.0451 for the second.

Compared with RRIRRRPPRLPRPRPRPSSCPRP, RRIRARPPRLPRPRPRPCWEPRP is higher in “shrunken log2 fold change” value: 0.055 for the first, 0.755 for the second.

RRIRIRPPRLPRPRPRPWMMPRP and RRIRERPPRLPRPRPRPPQFPRP are within 0.2 log units of each other in “shrunken log2 fold change” value: -0.178 for the first, -0.151 for the second.

In the case of RRIRCRPPRLPRPRPRPRDPPRP, the “shrunken log2 fold change” value is reported as 0.864.
